“Also recorded” adds a separate entry of the source.
Legend:
[1] = tested on: chemerin-knockdown 786-O cells; experiment: Cell proliferation assay, rescue in chemerin-knockdown 786-O cells; assay type: cell-based, human
Description: Cell Proliferation Assay. Cells were plated at a density of 100,000 cells in triplicate wells of a 6-well plate, supplemented with DMEM containing 10% FBS. Cells were trypsinized and were counted using the Cell Counter Countess II (Life Technologies) at days 3, 6, 9 and 12.

786-O and 769-P cells = experiment: EdU incorporation assay (DNA synthesis); assay type: cell-based, human; conditions: chemerin-knockdown 786-O cells, etomoxir 50 μM and 100 μM, EdU flow cytometry
Description: EdU incorporation assay. […] After incubation, the cells were fixed with 3.7% formaldehyde/PBS for 15 minutes at room temperature and washed with 1 mL of 3% BSA/PBS twice. 1 mL of 0.5% TritonX-100 in PBS was added for 20 minutes at room temperature to permeabilize the cells. Next, cells were incubated with 0.5 mL of Click-iT reaction cocktail (Invitrogen, Cat #C10337) prepared according to manufacturer's instructions, at room temperature for 30 minutes and away from direct light. DAPI (Millipore, Cat #268298) was added later for DNA staining. […]

HIF2α mRNA in 786-O = experiment: qRT-PCR of HIF1α and HIF2α after fatty acid incubation; assay type: cell-based, human; conditions: 500 μM fatty acid for 24 hours
Description: RNA Isolation and Real Time Quantitative Polymerase Chain Reaction (qRT-PCR). Total RNA was extracted using TRIzol reagent (Invitrogen, Cat #15596018). The concentration and quality of RNA were determined using a NanoDrop 1000 spectrophotometer (Thermo). 500 ng of RNA was used to synthesize cDNA using the Quantabio qScript cDNA SuperMix (Quantabio, Cat #95048-100) according to the manufacturer's recommendations. The cDNA was diluted by 10-fold before used for qRT-PCR gene expression analysis. qRT-PCR was performed using Power SYBR Green PCR Master Mix (Applied Biosystems, Cat #4367659) and SYBR Green primers (Table 3). The Ct values of the gene of interest was normalized to the Ct value of the housekeeping control, β-actin. The fold change was then calculated using the 2^−ΔΔCt method. Sodium palmitate preparation and supplementation. To prepare BSA-palmitate conjugate, sodium palmitate (Thermo, Cat #P0500) was added to a NaCl solution and heated in a water bath while stirring. The hot palmitate solution was mixed with BSA solution, 5 mL at a time. The final volume was adjusted with 150 mM NaCl for 1 mM palmitate solution and pH was adjusted to 7.4. Sodium palmitate solution was added to cell at final concentration 500 μM and incubated for 24 hours.

[2] = tested on: HIF2α and chemerin protein in 786-O and 769-P cells; experiment: Immunoblots of lysates after fatty acid treatment; assay type: cell-based, human; conditions: 500 μM fatty acid
Description: Protein Extraction and Western blotting. The cells were washed with 1× ice-cold PBS (GE, Cat #SH30256.01) once before they were lysed in RIPA lysis buffer (50 mM Tris-HCl, pH 7.5; 150 mM NaCl; 0.5% NP-40; 50 mM NaF) and scraped from the plate on ice. The RIPA lysis buffer contained 1:1000 1× protease inhibitor cocktail (Sigma-Aldrich) and 1:100 1× phosphatase inhibitor (Sigma-Aldrich). The lysates were passed through a 16G needle 15 times before they were centrifuged at 4° C. for 20 minutes at 20,000×g. The protein lysates were quantified using the Pierce BCA Protein Assay Kit (Thermo) according to the manufacturer's protocols and absorbance was measured using GloMax Discover Microplate Reader (Promega). Between 50 and 100 μg of protein samples were mixed with 5×SDS Laemmli loading buffer and boiled at 95° C. for 5 minutes. Proteins were separated using 4-20% SDS-PAGE gels (Bio-Rad) and transferred onto PVDF membrane (Millipore). The membrane was blocked with TBS-T supplemented with 5% non-fat dry milk primary antibody for 45 minutes at room temperature rocking before blotting with primary antibodies at 4° C. overnight. The membrane was washed in TB S-T 3 times with 5 minutes each and blotted in secondary antibodies at room temperature for 2 hours. An Azure 300 chemiluminescent western blot imaging system (Azure biosystems) was used to visualize the membrane. […]

786-O cells [3] = experiment: Cell viability assay (MTT) after monoclonal antibody treatment, 786-O; assay type: cell-based, human; conditions: increasing concentrations of mAb, 2, 4 and 6 days
Description: Cell Viability Assay. After treatment with monoclonal antibodies, 786-O cells were incubated with 3-(4,5-dimethylthiazol-2-yl)-2,5-diphenylterazolium bromide (MTT, Sigma-Aldrich) to assess cell survival. Briefly, the cells were plated at density of 1000 cells/plate in 96-well plates and treated with different concentrations of monoclonal antibodies (IgG or anti-RARRES2) for indicated incubation times (2 days, 4 days and 6 days). MTT solution was diluted 5-fold in DMEM media and incubated in 37° C. incubator for 4 hours. The media was carefully removed and the precipitate was dissolved in DMSO. The solution later immediately quantified at 450 nm using the GloMax Discover Microplate Reader (Promega).

HK-2 cells = experiment: Cell viability assay (MTT) after monoclonal antibody treatment, HK-2; assay type: cell-based, human; conditions: similar dose range of the antibody
786-O cells [4] = experiment: Oil Red O (ORO) lipid droplet staining of cells; assay type: cell-based, human; conditions: compared to treatment with IgG
Description: Oil Red O (ORO) Lipid Droplet Staining. For tissue sections staining, the tissues were cryoprotected by incubating in 30% sucrose/PBS solution. After the tissues sank to the bottom of the vial, the tissues were embedded in OCT (Fisher Healthcare). Embedded tissue blocks were sectioned at 10 μm thickness and stored at −80° C. until ready for staining. Before ORO staining, the frozen sections were air dried and fixed in 10% neutral buffered formalin (Sigma-Aldrich, Cat #HT501128). After fixing in 100% propylene glycol (VWR, Cat #0575) twice, sections were stained with freshly made ORO solution (Sigma-Aldrich, Cat #00625) followed by staining for hematoxylin. Then, the slides were washed with distilled water and mounted using glycerin jelly (Sigma-Aldrich). The sections were visualized using a VS120 Virtual Slide Microscope scanner (Olympus). For cell staining, the cells plated in 12-well plates in triplicate were rinsed with PBS twice, and fixed with 10% formaldehyde for 1 hour. […] After the cells were air dried, 250 μL of isopropanol was added to the wells and the eluted solution was measured at 510 nm. Next, the cells were stained with sulforhodamine B as previously described, and measured at 564 nm using GloMax Discover Microplate Reader (Promega), as previously described.

786-O cells [5] = experiment: Lipid reactive oxygen species, BODIPY 581/591 C11; assay type: cell-based, human; conditions: compared to treatment with IgG
Description: Lipid Reactive Oxygen Species. The cells were plated at 50,000 cells per well in 24-well plate. 10 uM BODIPY-581/591 C11 (Invitrogen, Cat #D3861) and 1 ug/mL DAPI (Millipore) were added to the media and incubated for 1 hour at 37° C., 5% CO2. Cells were imaged using Olympus FV1000 confocal scanning microscope and analyzed using Fiji software (ImageJ). 9 randomly selected images per condition were selected for analysis.

786-O orthotopic tumors = experiment: Orthotopic 786-O tumor growth under left kidney capsule of nude mice (bioluminescence imaging); assay type: in vivo; conditions: for in vivo 786-O tumor growth (bioluminescence imaging): 20 mg/kg twice weekly versus IgG control mAb, n=6 each arm; for animal weight / toxicity: nude mice with orthotopic 786-O, 20 mg/kg twice weekly, weight recorded weekly
Source text: Animal Studies. All animal experiments were in compliance with National Institutes of Health guidelines and were approved by the Institutional Animal Care and Use Committee (IACUC) of the University of Miami Miller School of Medicine. Six-week-old female athymic nude mice (Charles River Laboratories) were used for xenograft studies. Mice were housed (3-5 mice per cage) on a 12-hour light/dark cycle in individually ventilated cages, and with ad libitum access to food and water. The experimental holding room had temperature (21.5° C. set point) and humidity control (40% set point), and it was equipped with HEPA-filtered air. For subcutaneous tumor growth model, cells were pelleted and resuspended in a PBS/Matrigel Matrix (Corning, Cat #356234) mix at 1:1 ratio. 2×10^6 cells in a 100 μL solution were injected subcutaneously into each flank. Once palpable tumors were established, digital calipers were used to measure tumor size twice weekly. Tumor volume was calculated using the equation V=½ (length×width^2). For orthotopic tumor growth assays, soft collagen pellets containing 1×10^6 cells were implanted orthotopically under the capsules of the left kidney. Tumors were palpated and monitored twice weekly using IVIS bioluminescence imaging (Perkin Elmer). At the end of the experiments, blood was collected and both kidneys were harvested.

[6] = tested on: patient derived xenograft of kidney cancer; experiment: Patient derived xenograft of kidney cancer, antibody versus cabozantinib (FIG. 20); assay type: in vivo; conditions: antibody 20 mg/kg twice per week versus cabo 10 mg/kg 5 times per week
786-O cells [7] = experiment: BODIPY 493/503 lipid droplet imaging; assay type: cell-based, human; conditions: chemerin-silenced 786-O cells; 50 nM recombinant chemerin protein for 18 hours
Description: BODIPY Lipid Droplet Imaging. Cells were plated on round glass coverslips of 12-well plates and incubated with 1 mL of DMEM supplemented with 10% FBS. The medium was removed and cells were washed with room temperature PBS, fixed with 4% formaldehyde for 30 minutes and incubated with 300 μL of 1 uM BODIPY 493/503 (Life Technologies, Cat #D3922) for 15 minutes, protected from direct light. 1 μg/mL of DAPI (Millipore) was added for nucleus staining. The z stack images were acquired using Olympus FV1000 confocal scanning microscope and analyzed using Fiji software (ImageJ).

CCOC(=O)c1ccc(NC2CCCCC2)c(N)c1 [Ferrostatin-1]
rescue of proliferation defect ([1]; chemerin-deficient 786-O cells, 1 μM Ferrostatin-1): rescued the proliferation defect

Clc1cccc(CN=C2Nc3ccccc3NC23CCNCC3)c1 [Liproxstatin-1]
rescue of proliferation defect ([1]; chemerin-deficient 786-O cells, 0.5 μM Liproxstatin-1): rescued the proliferation defect

CCOC(=O)[C@@]1(CCCCCCOc2ccc(Cl)cc2)CO1 [etomoxir]
rescue of DNA synthesis (EdU) (786-O and 769-P cells): rescued the reduction in DNA synthesis | rescue of DNA synthesis (EdU) (786-O and 769-P cells; listed as Etomoxir): rescues tumorigenesis | rescue of proliferation defect ([1]; chemerin-knockdown 786-O cells, 50 μM Etomoxir): rescued | rescue of proliferation defect ([1]; chemerin-knockdown 786-O cells, 50 μM Etomoxir, listed as Etomoxir): rescues proliferation defect

CCCCC/C=C\C/C=C\CCCCCCCC(=O)O [linoleic acid]
HIF2α mRNA (HIF2α mRNA in 786-O): opposite pattern | HIF2α protein [2]: opposite pattern; also recorded: decreased | chemerin protein [2]: opposite pattern; also recorded: decreased

B1: chemerin mAb: monoclonal antibody against chemerin; heavy chain SEQ ID NO: 3, light chain SEQ ID NO: 4 (antibody, V domains shown)
VH: MEWNWVVLFLLSLTAGVYSQGQMQQSGAELVKPGASVKLSCKTSGFTFSSSYISWLKQKPRQSLEWIAWIYAGTGGTSYNQKFTGKAQLTVDTSSSTAYMQLSSLTSEDSAIYYCASFWDSWGQGTTLTVSS
VL: MRCLAEFLGLLVLWIPGAIGDIVMTQAAPSVPVTPGESVSISCRSSKSLLHSNGNTYLYWFLQRPGQSPQLLIYRMSNLASGVPDRFSGSGSGTAFTLRISRVEAEDVGVYYCMQHLEYPLTFGAGTKLELK
cell viability (786-O cells [3]): dose-dependent reduction in cell viability | cell viability (HK-2 cells): cell viability was not affected | lipid droplets (ORO staining quantification) (786-O cells [4]): decrease in lipid droplets | lipid ROS (BODIPY 581/591 C11) (786-O cells [5]): increase in lipid ROS | in vivo 786-O tumor growth (bioluminescence imaging) (786-O orthotopic tumors): significantly reduced | in vivo 786-O tumor growth (bioluminescence imaging) (786-O orthotopic tumors; listed as monoclonal antibody (mAb) targeting chemerin): reduces ccRCC tumor burden | tumor weight upon sacrifice (786-O orthotopic tumors; 20 mg/kg twice weekly versus IgG mAb, n=6 each group): lower tumor weights | animal weight / toxicity (786-O orthotopic tumors): did not result in significant changes in animal weight | animal weight / toxicity (786-O orthotopic tumors; listed as monoclonal antibody targeting chemerin): no toxicity | efficacy compared with cabozantinib [6]: as effective as cabo

B2: recombinant chemerin protein: recombinant chemerin protein used to rescue chemerin-silenced cells (protein, UniProt Q99969 21-157, looked up)
Retinoic acid receptor …: ELTEAQRRGLQVALEEFHKHPPVQWAFQETSVESAVDTPFPAGIFVRLEFKLQQTSCRKRDWKKPECKVRPNGRKRKCLACIKLGSEDKVLGRLVHCPIETQVLREAEEHQETQCLRVQRAGEDPHSFYFPGQFAFS
rescue of lipid deposition (BODIPY 493/503) (786-O cells [7]): partially rescued; also recorded: rescued the lipid deposition defect
